According to paper PMC2749821 (BMC Biology, 2009):

B1: bone morphogenetic protein 7 (BMP7), human (ligand, UniProt P18075 293-431, looked up)
chain: STGSKQRSQNRSKTPKNQEALRMANVAENSSSDQRQACKKHELYVSFRDLGWQDWIIAPEGYAAYYCEGECAFPLNSYMNATNHAIVQTLVHFINPETVPKPCCAPTQLNAISVLYFDDSSNVILKKYRNMVVRACGCH
modifications: biotin (sulfo-NHS-LC-biotin) where immobilised
notes: human BMP7, CHO-cell derived, bought; dimeric ligand; also called hBMP7; source: bought: R&D Systems (CHO-cell derived)
B2: BMP receptor II (BMPR-II) ectodomain, human (receptor, UniProt Q13873 32-150, looked up)
chain: RLCAFKDPYQQDLGIGESRISHENGTILCSKGSTCYGLWEKSKGDINLVKQGCWSHIGDPQECHYEECVVTTTPPSIQNGTYRFCCCSTDLCNVNFTENFPPPDTTPLSPPHSFNRDET
modifications: N-biotinylated (sulfo-NHS-LC-biotin) where immobilised
notes: also called hBMPR-II
B3: bone morphogenetic protein 2 (BMP2), mature part, wild type (ligand, human)
chain: MAQAKHKQRKRLKSSCKRHPLYVDFSDVGWNDWIVAPPGYHAFYCHGECPFPLADHLNSTNHAIVQTLVNSVNSKIPKACCVPTELSAISMLYLDENEKVVLKNYQDMVVEGCGCR
modifications: biotin (sulfo-NHS-LC-biotin) where immobilised
notes: N-terminal Met-Ala added to the mature part; dimeric ligand; also called wtBMP2; BMP2wt; source: E. coli, isolated from inclusion bodies, renatured and purified
B4: growth and differentiation factor 5 (GDF5), mature part (ligand)
chain: MKRQGKRPSKNLKARCSRKALHVNFKDMGWDDWIIAPLEYEAFHCEGLCEFPLRSHLEPTNHAVIQTLMNSMDPESTPPTCCVPTRLSPISILFIDSANNVVYKQYEDMVVESCGCR
modifications: biotin (sulfo-NHS-LC-biotin) where immobilised
notes: N-terminal Met-Lys added to the mature part; dimeric ligand; source: E. coli, isolated from inclusion bodies, renatured and purified

Tests used:
Conditions in all cases: both partners purified
[1] = molecular target: T1, activin receptor type II (ActR-II) ectodomain, human (human, UniProt P27037 18-135, N-biotinylated (sulfo-NHS-LC-biotin) where immobilised); experiment: SPR; Biacore 2000; receptor ectodomains as analyte over biotinylated ligands on streptavidin-coated CM5 chips; HBS500, 25°C, 10 μl/min; apparent affinities, 1:1 interaction
T1 construct: also called hActR-II

[2] = molecular target: T1, activin receptor type II (ActR-II) …; experiment: SPR; Biacore 2000; ligands as analyte over biotinylated receptor ectodomains (about 200 RU) on streptavidin-coated CM5 chips; HBS500 (10 mM HEPES pH 7.4, 500 mM NaCl, 3.4 mM EDTA, 0.005% P20), 25°C, 10 μl/min; apparent affinities, 1:2 interaction with avidity
[3] = molecular target: B2; experiment: as above
[4] = molecular target: B1; experiment: SPR; Biacore 2000; receptor ectodomains as analyte over biotinylated ligands on streptavidin-coated CM5 chips; HBS500, 25°C, 10 μl/min; apparent affinities, 1:1 interaction
[5] = molecular target: B1; experiment: SPR; Biacore 2000; ligands as analyte over biotinylated receptor ectodomains (about 200 RU) on streptavidin-coated CM5 chips; HBS500 (10 mM HEPES pH 7.4, 500 mM NaCl, 3.4 mM EDTA, 0.005% P20), 25°C, 10 μl/min; apparent affinities, 1:2 interaction with avidity
[6] = molecular target: B2; experiment: SPR; Biacore 2000; receptor ectodomains as analyte over biotinylated ligands on streptavidin-coated CM5 chips; HBS500, 25°C, 10 μl/min; apparent affinities, 1:1 interaction

## B1
[1]
  Kd: 880 nM
  koff: > 0.1 s⁻¹
[2]
  KD (kin): 5.1 nM
  Kd: 8 nM
  koff: 0.0062 s⁻¹
  kon: 1.2e+06 M⁻¹ s⁻¹
[3]
  KD (kin): 25 nM

## B2
[4]
  Kd: 9100 nM
  koff: > 0.1 s⁻¹
[5]
  Kd: 40 nM
  koff: 0.024 s⁻¹
  kon: 960000 M⁻¹ s⁻¹

## B3
[6]
  Kd: 13000 nM
[3]
  KD (kin): 45 nM
  Kd: 59 nM

## B4
[6]
  Kd: 60000 nM
[3]
  KD (kin): 36 nM
  Kd: 46 nM
